The text below walks through data of patent US20050112126A1 (Genentech, published 2005).

B1: pY0192 VH I51A (Fab, V domains shown)
VH: EVQLVESGGGLVQPGGSLRLSCAASGYTFTNYGINWVRQAPGKGLEWVGWANTYTGEPTYAADFKRRFTFSLDTSKSTAYLQMNSLRAEDTAVYYCAKYPHYYGSSHWYFDVWGQGTL
VL: DIQLTQSPSSLSASVGDRVTITCRANEQLSNYLNWYQQKPGKAPKVLIYFTSSLHSGVPSRFSGSGSGTDFTLTISSLQPEDFATYYCQQYSTVPWTFGQGTKVEIKR
notes: Ala-scan variant of pY0192; Fab on phage
B2: pY0192 VH P58A (Fab, V domains shown)
VH: EVQLVESGGGLVQPGGSLRLSCAASGYTFTNYGINWVRQAPGKGLEWVGWINTYTGEATYAADFKRRFTFSLDTSKSTAYLQMNSLRAEDTAVYYCAKYPHYYGSSHWYFDVWGQGTL
VL: DIQLTQSPSSLSASVGDRVTITCRANEQLSNYLNWYQQKPGKAPKVLIYFTSSLHSGVPSRFSGSGSGTDFTLTISSLQPEDFATYYCQQYSTVPWTFGQGTKVEIKR
notes: as for B1
B3: pY0192 VH P100A (Fab, V domains shown)
VH: EVQLVESGGGLVQPGGSLRLSCAASGYTFTNYGINWVRQAPGKGLEWVGWINTYTGEPTYAADFKRRFTFSLDTSKSTAYLQMNSLRAEDTAVYYCAKYAHYYGSSHWYFDVWGQGTL
VL: DIQLTQSPSSLSASVGDRVTITCRANEQLSNYLNWYQQKPGKAPKVLIYFTSSLHSGVPSRFSGSGSGTDFTLTISSLQPEDFATYYCQQYSTVPWTFGQGTKVEIKR
notes: Ala-scan variant of pY0192; Fab on phage; also called P1OOA
B4: pY0192 VH Y27A (Fab, V domains shown)
VH: EVQLVESGGGLVQPGGSLRLSCAASGATFTNYGINWVRQAPGKGLEWVGWINTYTGEPTYAADFKRRFTFSLDTSKSTAYLQMNSLRAEDTAVYYCAKYPHYYGSSHWYFDVWGQGTL
VL: DIQLTQSPSSLSASVGDRVTITCRANEQLSNYLNWYQQKPGKAPKVLIYFTSSLHSGVPSRFSGSGSGTDFTLTISSLQPEDFATYYCQQYSTVPWTFGQGTKVEIKR
notes: as for B1
B5: pY0192 VH T53A (Fab, V domains shown)
VH: EVQLVESGGGLVQPGGSLRLSCAASGYTFTNYGINWVRQAPGKGLEWVGWINAYTGEPTYAADFKRRFTFSLDTSKSTAYLQMNSLRAEDTAVYYCAKYPHYYGSSHWYFDVWGQGTL
VL: DIQLTQSPSSLSASVGDRVTITCRANEQLSNYLNWYQQKPGKAPKVLIYFTSSLHSGVPSRFSGSGSGTDFTLTISSLQPEDFATYYCQQYSTVPWTFGQGTKVEIKR
notes: as for B1
B6: pY0192 VH Y54A (Fab, V domains shown)
VH: EVQLVESGGGLVQPGGSLRLSCAASGYTFTNYGINWVRQAPGKGLEWVGWINTATGEPTYAADFKRRFTFSLDTSKSTAYLQMNSLRAEDTAVYYCAKYPHYYGSSHWYFDVWGQGTL
VL: DIQLTQSPSSLSASVGDRVTITCRANEQLSNYLNWYQQKPGKAPKVLIYFTSSLHSGVPSRFSGSGSGTDFTLTISSLQPEDFATYYCQQYSTVPWTFGQGTKVEIKR
notes: as for B1
B7: pY0192 VH T28A (Fab, V domains shown)
VH: EVQLVESGGGLVQPGGSLRLSCAASGYAFTNYGINWVRQAPGKGLEWVGWINTYTGEPTYAADFKRRFTFSLDTSKSTAYLQMNSLRAEDTAVYYCAKYPHYYGSSHWYFDVWGQGTL
VL: DIQLTQSPSSLSASVGDRVTITCRANEQLSNYLNWYQQKPGKAPKVLIYFTSSLHSGVPSRFSGSGSGTDFTLTISSLQPEDFATYYCQQYSTVPWTFGQGTKVEIKR
notes: as for B1
B8: pY0192 VH K65A (Fab, V domains shown)
VH: EVQLVESGGGLVQPGGSLRLSCAASGYTFTNYGINWVRQAPGKGLEWVGWINTYTGEPTYAADFARRFTFSLDTSKSTAYLQMNSLRAEDTAVYYCAKYPHYYGSSHWYFDVWGQGTL
VL: DIQLTQSPSSLSASVGDRVTITCRANEQLSNYLNWYQQKPGKAPKVLIYFTSSLHSGVPSRFSGSGSGTDFTLTISSLQPEDFATYYCQQYSTVPWTFGQGTKVEIKR
notes: as for B1
B9: pY0192 VH T30A (Fab, V domains shown)
VH: EVQLVESGGGLVQPGGSLRLSCAASGYTFANYGINWVRQAPGKGLEWVGWINTYTGEPTYAADFKRRFTFSLDTSKSTAYLQMNSLRAEDTAVYYCAKYPHYYGSSHWYFDVWGQGTL
VL: DIQLTQSPSSLSASVGDRVTITCRANEQLSNYLNWYQQKPGKAPKVLIYFTSSLHSGVPSRFSGSGSGTDFTLTISSLQPEDFATYYCQQYSTVPWTFGQGTKVEIKR
notes: as for B1
B10: pY0192 VH R66A (Fab, V domains shown)
VH: EVQLVESGGGLVQPGGSLRLSCAASGYTFTNYGINWVRQAPGKGLEWVGWINTYTGEPTYAADFKARFTFSLDTSKSTAYLQMNSLRAEDTAVYYCAKYPHYYGSSHWYFDVWGQGTL
VL: DIQLTQSPSSLSASVGDRVTITCRANEQLSNYLNWYQQKPGKAPKVLIYFTSSLHSGVPSRFSGSGSGTDFTLTISSLQPEDFATYYCQQYSTVPWTFGQGTKVEIKR
notes: as for B1
B11: pY0192 VH T55A (Fab, V domains shown)
VH: EVQLVESGGGLVQPGGSLRLSCAASGYTFTNYGINWVRQAPGKGLEWVGWINTYAGEPTYAADFKRRFTFSLDTSKSTAYLQMNSLRAEDTAVYYCAKYPHYYGSSHWYFDVWGQGTL
VL: DIQLTQSPSSLSASVGDRVTITCRANEQLSNYLNWYQQKPGKAPKVLIYFTSSLHSGVPSRFSGSGSGTDFTLTISSLQPEDFATYYCQQYSTVPWTFGQGTKVEIKR
notes: as for B1
B12: pY0192 VH S105A (Fab, V domains shown)
VH: EVQLVESGGGLVQPGGSLRLSCAASGYTFTNYGINWVRQAPGKGLEWVGWINTYTGEPTYAADFKRRFTFSLDTSKSTAYLQMNSLRAEDTAVYYCAKYPHYYGASHWYFDVWGQGTL
VL: DIQLTQSPSSLSASVGDRVTITCRANEQLSNYLNWYQQKPGKAPKVLIYFTSSLHSGVPSRFSGSGSGTDFTLTISSLQPEDFATYYCQQYSTVPWTFGQGTKVEIKR
notes: as for B1
B13: pY0192 VH Y60A (Fab, V domains shown)
VH: EVQLVESGGGLVQPGGSLRLSCAASGYTFTNYGINWVRQAPGKGLEWVGWINTYTGEPTAAADFKRRFTFSLDTSKSTAYLQMNSLRAEDTAVYYCAKYPHYYGSSHWYFDVWGQGTL
VL: DIQLTQSPSSLSASVGDRVTITCRANEQLSNYLNWYQQKPGKAPKVLIYFTSSLHSGVPSRFSGSGSGTDFTLTISSLQPEDFATYYCQQYSTVPWTFGQGTKVEIKR
notes: as for B1
B14: pY0192 VH N35A (Fab, V domains shown)
VH: EVQLVESGGGLVQPGGSLRLSCAASGYTFTNYGIAWVRQAPGKGLEWVGWINTYTGEPTYAADFKRRFTFSLDTSKSTAYLQMNSLRAEDTAVYYCAKYPHYYGSSHWYFDVWGQGTL
VL: DIQLTQSPSSLSASVGDRVTITCRANEQLSNYLNWYQQKPGKAPKVLIYFTSSLHSGVPSRFSGSGSGTDFTLTISSLQPEDFATYYCQQYSTVPWTFGQGTKVEIKR
notes: as for B1
B15: pY0192 VH T59A (Fab, V domains shown)
VH: EVQLVESGGGLVQPGGSLRLSCAASGYTFTNYGINWVRQAPGKGLEWVGWINTYTGEPAYAADFKRRFTFSLDTSKSTAYLQMNSLRAEDTAVYYCAKYPHYYGSSHWYFDVWGQGTL
VL: DIQLTQSPSSLSASVGDRVTITCRANEQLSNYLNWYQQKPGKAPKVLIYFTSSLHSGVPSRFSGSGSGTDFTLTISSLQPEDFATYYCQQYSTVPWTFGQGTKVEIKR
notes: as for B1

T1 sequence (P15692 other isoform, or with tags, fused parts or gaps limits assumed): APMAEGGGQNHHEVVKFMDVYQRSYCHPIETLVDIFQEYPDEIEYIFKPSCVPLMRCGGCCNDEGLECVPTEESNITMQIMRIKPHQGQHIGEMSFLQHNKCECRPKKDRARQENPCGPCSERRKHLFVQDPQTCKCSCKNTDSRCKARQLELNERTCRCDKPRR

This test has as its target T1, VEGF (human, UniProt P15692-4 27-191, limits assumed).
T1 construct: Biotinylated in the KDR-IgG ELISA, amine-coupled to the chip in BIAcore; also called biotinylated VEGF; vascular endothelial growth factor
Nature of the test: competitive phage-ELISA, relative to pY0192. The protocol: In such an assay, phages were first serially diluted to determine a fractional saturation titer which was then held constant and used to incubate with varying concentrations of VEGF (starting at 200 nM to 0 nM) in solution. The mixture was then transferred onto plate precoated with VEGF (2 μg/mL) and blocked with 5% instant milk, and allowed to equilibrate for 1 hour at room temperature. Thereafter, the phage solution was removed and the remaining bound phages were detected with a solution of rabbit anti-phage antibody mixed with goat anti-rabbit conjugate of horse radish peroxidase. After an hour incubation at room temperature, the plate was developed with a chromogenic substrate, o-phenylenediamine (Sigma). The reaction was stopped with addition of ½ volume of 2.5 M H₂SO₄. Optical density at 492 nm was measured on a spectrophotometric plate reader.
IC50's were determined in a competitive phage-ELISA assay.
Regarding B1, the “IC50 (mut)/IC50 (wt)” value was 4 ratio.

In the case of B2, the “IC50 (mut)/IC50 (wt)” value was 1 ratio.

For the molecule B3, the “IC50 (mut)/IC50 (wt)” value came out at 38 ratio.

Regarding B4, the “IC50 (mut)/IC50 (wt)” value stood at 34 ratio.

As for B5, the “IC50 (mut)/IC50 (wt)” value came to 9 ratio.

In the case of B6, the “IC50 (mut)/IC50 (wt)” value came out at 9 ratio.

Regarding B7, the “IC50 (mut)/IC50 (wt)” value was determined as 1 ratio.

As for B8, the “IC50 (mut)/IC50 (wt)” value was 1 ratio.

For the molecule B9, the “IC50 (mut)/IC50 (wt)” value is 1 ratio.

On to B10, for which the “IC50 (mut)/IC50 (wt)” value was 1 ratio.

For B11, the “IC50 (mut)/IC50 (wt)” value is 4 ratio.

Regarding B12, the “IC50 (mut)/IC50 (wt)” value was 1 ratio.

Take B13: the “IC50 (mut)/IC50 (wt)” value turned out to be 2 ratio.

As to B14, the “IC50 (mut)/IC50 (wt)” value amounted to 66 ratio.

For the molecule B15, the “IC50 (mut)/IC50 (wt)” value turned out to be 3 ratio.
